Experimental data: US20040081651A1 (Biogen, published 2004)

Assays:
[1] = molecular target: T1, human α1-I domain-GST fusion protein (human, UniProt P56199 151-364); assay: ELISA on immobilized α1 I domain-GST (±0.058 in r14)
T1 construct: Expressed in E. coli; not shown: glutathione S-transferase of vector pGEX4t-i (Pharmacia), with a thrombin cleavage site at the junction

[2] = molecular target: T1, human α1-I domain-GST fusion protein; assay: electrochemiluminescence; inhibition of α1 I domain-GST binding to type IV collagen beads (±0.007 in r14)
[3] = molecular target: T2, human VLA-1 (α1β1 integrin) on K562 cells transfected with the α1 integrin subunit (human, UniProt P56199 29-1179; P05556 21-798); assay: FACS of VLA-1-expressing K562α1 cells stained with conditioned medium of transfected 293-EBNA cells; mean MFI normalized to chAQC2 blocked; average of two transfections
T2 construct: whole, on cells; also called huVLA-1; K562-α1

[4] = molecular target: T2, human VLA-1 (α1β1 integrin) on K562 …; assay: FACS on human α1-transfected K562 cells
[5] = molecular target: T1, human α1-I domain-GST fusion protein; assay: ELISA; competition with biotinylated mAQC2 (competitor) for immobilized α1 I domain-GST
[6] = molecular target: T3, α1β1 integrin (VLA-1) in lysate of α1-transfected K562 cells (human, UniProt P56199 29-1179; P05556 21-798); assay: electrochemiluminescence; inhibition of α1β1 (K562-α1 lysate) binding to type IV collagen beads (±0.002 in r14)
[7] = molecular target: T3, α1β1 integrin (VLA-1) in lysate of …; assay: electrochemiluminescence; inhibition of α1β1 (K562-α1 lysate) binding to type IV collagen beads (±0.014 in r12)
[8] = molecular target: T1, human α1-I domain-GST fusion protein; assay: ELISA on immobilized α1 I domain-GST (±0.015 in r12)
[9] = molecular target: T1, human α1-I domain-GST fusion protein; assay: electrochemiluminescence; inhibition of α1 I domain-GST binding to type IV collagen beads (±0.011 in r12)

Row | Binder | EC50 [1] [nM] | IC50 [2] [nM] | Relative MFI [3] | EC50 [4] [nM] | IC50 [5] [nM] | IC50 [6] [nM] | IC50 [7] [nM] | EC50 [8] [nM] | IC50 [9] [nM]
1 | chAQC2 (murine-human chimeric AQC2, blocked light chain; pAND099 + pAND102) (antibody, V domains shown, also called Chimera) VH: DVKVVESGGGLVKPGGSLKLACAASGFSFSRYTMSWVRQIPEKRLEWVATISGGGHTYYLDSVKGRFTISRDNAKNTLYLQMSSLRSEDTAMYYCTRGFGDGGYFDVWGQGTTVTVSS VL: QIVLTQFPALMSASPGEKVTMTCSASSSVNHMFWYQQKPKSSPKPWIYLTSNLASGVPARFSGSGSGTSYSLTISSMEAEDAATYYCQQWSGNPWTFGGGTKLEIK | 0.176 | 0.027 | 1 relative to chAQC2 blocked | 0.25 | 30 | 0.071 |  |  | 
2 | monoclonal antibody AQC2 (mAQC2) (antibody, mouse IgG1, V domains shown, Hybridoma ATCC PTA3273; also called murine AQC2) VH: DVKVVESGGGLVKPGGSLKLACAASGFSFSRYTMSWVRQIPEKRLEWVATISGGGHTYYLDSVKGRFTISRDNAKNTLYLQMSSLRSEDTAMYYCTRGFGDGGYFDVWGQGTTVTVSS VL: QIVLTQFPALMSASPGEKVTMTCSASSSVNHMFWYQQKPKSSPKPWIYLTSNLASGVPARFSGSGSGTSYSLTISSMEAEDAATYYCQQWSGNPWTFGGGTKLEIK |  |  |  |  | 38 |  | 0.0726 | 0.061 | 0.029
